The values that follow come from the supplement of paper PMC9170038.

For the data set, the system named is MS2 coat protein. In words: apparent KD of MS2 coat protein; designed switch direction (-1 OFF switch, 1 ON switch): -1; higher = weaker reporter binding. In a few lines: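 Each step of the titration lasted 0.8–1.5 h at the lowest concentration and 10–20 min at the highest. The protein, SNAP-549-labelled MS2 coat protein, went from 0.7 or 1.5 nM doubling to 3 µM over RNA switches transcribed on Illumina chips by stalled E. coli RNA polymerase. Normalised cluster fluorescence was curve-fitted, and the per-design median over clusters is given as apparent KD.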

The mark [1] stands for this setting: Eterna round: R95, input ligand: microRNA oligo, concentration not stated.
Setting [2] is: input ligand: microRNA oligo, concentration not stated.
Where [3] appears, read: Eterna round: R95, input ligand: FMN 200 uM.
Setting [4] is: Eterna round: R95, input ligand: none.

Consider “GGCAAACAUGAGGAUCACCCAUGUCAGGAUAUUAGGCGAUCGUCGAUAGACGAUAGCCUGAGAAGGGACAUGCC [Mat - Exclusion 1 - Eli Mod - D16] (Eterna round: R97, puzzle: Exclusion 1)”, for which the “apparent KD of MS2 coat protein” value is, setting by setting: (input ligand: FMN 200 uM) 391 nM; (input ligand: none) 85.2 nM.
“GGCAAUAUGUAGGAUAUCGUAUCGGAAACGAUACGAGAAGGGCAAACAUGAGGAUCACCCAUGUUCUUCAAGCC [Fiskers Ex 6 - 11] (puzzle: Exclusion 6)”: the “apparent KD of MS2 coat protein” value under setting [1] was 15.6 nM.
On to “GGCACACAUGAGGAUCACCCAUGUGAGGAUAUGUGGCGAUCGUCGAUAGACGAUAGCCACAGAAGGCACAGGCC [Mat - Exclusion 1 - Eli Mod - D21] (Eterna round: R97, puzzle: Exclusion 1)”, for which the “apparent KD of MS2 coat protein” value reads like this: (input ligand: FMN 200 uM) 23.2 nM; (input ligand: none) 19.2 nM.
The corresponding values for “GGCACACAUGAGGAUCACCCAUGUGAGGAUAUGUGGCGAUCGUCGAUAGACGAUAGCCACAGAAGGCACAUGCC [Mat - Exclusion 1 - Eli Mod - D9] (Eterna round: R97, puzzle: Exclusion 1)” are 39.4 nM and 17.8 nM.
On to “GGCACACAUGUAGGAUAUCUGCACGUUUAGUGCAGAGAAGGACAUGAGGAUCACCCAUGUAAUUAAGAUCAAUUAUUAAGUGCC [ENG1/3-A2] (Eterna round: R96, puzzle: Exclusion NG 1)”, for which the “apparent KD of MS2 coat protein” value was found to be 564 nM (input ligand: FMN 200 uM), 48.6 nM under setting [2] and 58.3 nM (input ligand: none).
For “GGCAUAAACGAGGAUAUCGUAUCGGAAACGAUACGAGAAGGUGUAACAUGAGGAUCACCCAUGUUCCUCAAGCC [Mat - Exclusion 6 - Eli Mod - D58] (puzzle: Exclusion 6)”, under setting [1], the “apparent KD of MS2 coat protein” value was determined as 38.1 nM.
Regarding “GGCAUGCAAGGAUAUACUUACAGUGAUGUUCGAAUAAGGCUACUUGAGGAUCACCCAAGUAGAAGGUGCAUGCC [Exclusion 2 (Mod JL EX2 4.74 Vienna UCT mod of Mamaed)] (Eterna round: R97, puzzle: Exclusion 2)”, the “apparent KD of MS2 coat protein” value is, setting by setting: (input ligand: FMN 200 uM) 203 nM; (input ligand: none) 26.8 nM.
The corresponding values for “GGCAUGCAAGGAUAUACUUACGGUGAUGUUCGAAGCUUUCUACUUGAGGAUCACCCAAGUAGAAGGUGCAUGCC [jl-ex2.4.75 ViennaUCT mod] (Eterna round: R97, puzzle: Exclusion 2)” are 10.5 nM and 21.1 nM.
For “GGCAUGUGAGGAUAUGUACCUGAGUGCUUUGCGCUCAGGAAACAGAAGGCACAUGAGGAUCACCCAUGUGAUAA [jl-ex4-4.49 ViennaUCT mod] (Eterna round: R97, puzzle: Exclusion 4)”, in that order: 67.7 nM and 710 nM.
For “GGCCAGAUAGGAUAUACUUGAGGAUCACCCAAGUAAAGGAGCAAGCUCCGAUCCUUUGGUAGAAGGAUCGGCCA [Diqulees] (Eterna round: R97, puzzle: Exclusion 3)”, in that order: 92.7 nM and 52.8 nM.
Turning to “GGCCGUAAUAAGGAUAUCACUAGCCUCGGCUAGUGAGAAGGUAUUACAUGAGGAUCACCCAUGUGGUCAGGCCA [E6/4-B2] (Eterna round: R97, puzzle: Exclusion 6)”, the “apparent KD of MS2 coat protein” value came out at 903 nM (input ligand: FMN 200 uM) and 285 nM (input ligand: none).
For “GGCCUUCCGCAAGCUUUUUACAUGAGGAUCACCCAUGUGGUUUUUAGUCUUAUGUUCGGGCCCGUGUGGGCUCGGGC [-25.5, -46.5, A 13%] (Eterna round: R97, puzzle: Sensor, turn-off variant 1)”, in that order: 28.4 nM and 29 nM.
For “GGCGAAGUAGGAUAUACAUGAGGAUCACCCAUGUAACCUGAUGGCGUAGGUCUUCUAUGUAGAAGGGCUGCGCC [jl-ex3-4.38 ViennaUCT mod] (Eterna round: R97, puzzle: Exclusion 3)”, in that order: 16 nM and 15.6 nM.
“GGCGGACAUGAGGAUCACCCAUGUCAGGAUAUUAGGCGAUCGUCGAUAGACGAUAGCCUGAGAAGGGACGCGCC [Mat - Exclusion 1 - Eli Mod - D13] (Eterna round: R97, puzzle: Exclusion 1)”: the “apparent KD of MS2 coat protein” value came to 18.6 nM (input ligand: FMN 200 uM) and 17.7 nM (input ligand: none).
In the case of “GGCUGACAUGUAGGAUAUCUGCACGUGUAGUGCAGAGAAGGACAUGAGGAUCACCCAUGUAUAGCGACUUCGGUCGCAACAGCC [ENG1/2-A3] (Eterna round: R96, puzzle: Exclusion NG 1)”, the “apparent KD of MS2 coat protein” value under setting [2] came to 35.9 nM.
Regarding “GGGAAACAUGAGGAUCACCCAUGUAAGGAUAUGCAAAAGGAUAUAGAAGGAAAAAAAAGCAGAAGGUACAAAGG [salish99-ex1_r3_100] (puzzle: Exclusion 1)”, the “apparent KD of MS2 coat protein” value by setting is: under setting [3], 68.8 nM; under setting [1], 59.8 nM; under setting [4], 57.3 nM.
The corresponding values for “GGGAAACAUGAGGAUCACCCAUGUGAGGAUAUGAAAAAGAAAAGAAAAGAAAGAAGAAUCAGAAGGCACAAAGG [salish99-ex1_r3_079] (puzzle: Exclusion 1)” are 75.5 nM, 36.1 nM and 54.9 nM.
Consider “GGGAAGAACCAACAAGUAAACAUGAGGAUCACCCAUGUAAACUUCAUGUGCACGCUUUGCGUGCAAGCUCGUCUUAU [AK-miRNA-r3-14] (Eterna round: R97, puzzle: Sensor, turn-off variant 1)”, for which the “apparent KD of MS2 coat protein” value (input ligand: FMN 200 uM) was found to be 19.2 nM and the “apparent KD of MS2 coat protein” value (input ligand: none) stood at 18.6 nM.
As to “GGGAAGUGAGGAUAUAUGAGAGAGGCUGAACCGGACGAGAAGUAGAAGGCACAUGAGGAUCACCCAUGUAGGGA [JR_Exclu4_Sub025] (puzzle: Exclusion 4)”, under setting [1], the “apparent KD of MS2 coat protein” value was found to be 128 nM.
As for “GGGAAGUGAGGAUAUAUGAGAGAGGCUGGACCGGAUGAGAAGUAGAAGGCACAUGAGGAUCACCCAUGUAGGGA [JR_Exclu4_Sub026] (puzzle: Exclusion 4)”, the “apparent KD of MS2 coat protein” value by setting is: under setting [3], 130 nM; under setting [1], 152 nM; under setting [4], 209 nM.
On to “GGGAGAGAGUGAGGAUAUCAAAGAACAUGAGGAUCACCCAUGUAACCUCAUGUAAGAAGAAGAAGUGAGAAGGCACAGGAGGGU [Default title] (Eterna round: R96, puzzle: Exclusion NG 2)”, for which the “apparent KD of MS2 coat protein” value is 463 nM (input ligand: FMN 200 uM), 256 nM under setting [2] and 628 nM (input ligand: none).
Turning to “GGGAGGAGAGUGAGGAUAUUCGAGGGAGGGAGGGUGAAGAAGGCACAUGAGGAUCACCCAUGUGGUGGGAGGUU [RHig 1] (Eterna round: R97, puzzle: Brourd's mod of Exclusion 4)”, the “apparent KD of MS2 coat protein” value runs as follows: (input ligand: FMN 200 uM) 23.9 nM; (input ligand: none) 38.3 nM.
Turning to “GGGAUGUCAGGAUAUCCAAAAGUCCGCCAGUACGGCAGACAGGAGAAGGGACAUGAGGAUCACCCAUGUAAAGA [Leinrete] (puzzle: Exclusion 4)”, the “apparent KD of MS2 coat protein” value worked out at 89 nM under setting [3], 32.6 nM under setting [1] and 38.3 nM under setting [4].
For the sequence “GGGCCCGGAGGAUAUACAAUUCUGGGCUGAAAGGCUCGGGUACAUGAGGAUCACCCAUGUAGAAGGCCGGGCCC [-37.6, -34.7 kcal A 24%, 7bis-0] (Eterna round: R97, puzzle: Exclusion 2)”, the “apparent KD of MS2 coat protein” value (input ligand: FMN 200 uM) was found to be 33.4 nM and the “apparent KD of MS2 coat protein” value (input ligand: none) was 14.9 nM.
The corresponding values for “GGGCCCGGUGUGAGGAUAUGUGAUCGGAAAUGAUCGUAGAAGGCACAUGAGGAUCACCCAUGUAAGCCGGGCCC [-31.3, -29.2 kcal, A 26%, 2-0] (Eterna round: R97, puzzle: Brourd's mod of Exclusion 4)” are 34.2 nM and 289 nM.
On to “GGGCCCGGUGUGAGGAUAUUGGGCCCGAAAGGGCCCGAGAAGGCACAUGAGGAUCACCCAUGUAAGCCGGGCCC [-46.5, -44.5 kcal, A 23%, 5c-0] (Eterna round: R97, puzzle: Brourd's mod of Exclusion 4)”, for which the “apparent KD of MS2 coat protein” value is, setting by setting: (input ligand: FMN 200 uM) 15.8 nM; (input ligand: none) 14.9 nM.
The corresponding values for “GGGCUCGGAGGAUAUACAAUGGGCUCGGGAAAUCGGGCUCUACAUGAGGAUCACCCAUGUAGAAGGUCGGGCUC [-38.9, -35.6 kcal A 24%, 4,4] (Eterna round: R97, puzzle: Exclusion 2)” are 16.4 nM and 14.1 nM.
In the case of “GGGCUGCGACGCAGCCAAACAAAACAUGAGGAUCACCCAUGUCAGGAUAUACCGAUGCAGCAUCUGUAGAAGGGACAGAUCCAA [Onlaorre] (Eterna round: R96, puzzle: Exclusion NG 3)”, the “apparent KD of MS2 coat protein” value is, setting by setting: (input ligand: FMN 200 uM) 145 nM; under setting [2], 63.5 nM; (input ligand: none) 73.3 nM.
On to “GGGCUGUCAGGAUAUCCCGGGCCCGGGUAAACCCGGGUUUGGGAGAAGGGACAUGAGGAUCACCCAUGUGGCCC [-39.8, -38.8 kcal, A 20%, 5cbis-0] (Eterna round: R97, puzzle: Exclusion 4)”, for which the “apparent KD of MS2 coat protein” value by setting is: (input ligand: FMN 200 uM) 34.8 nM; (input ligand: none) 34.1 nM.
For “GGGCUGUCAGGAUAUUCGAGUUCGAGUGAAAGCUUGAGCUUGAAGAAGGGACAUGAGGAUCACCCAUGUGGCCC [-32.1, -31.1 kcal, A 26%, 1bis-0] (Eterna round: R97, puzzle: Exclusion 4)”, in that order: 30.5 nM and 31.9 nM.
As for “GGGUGACAGUUAGGAUAUCUUAGCACGCCGUAGAGAGAAGGAACAUGAGGAUCACCCAUGUUGUAGUGCCUCCGGCACUGCUAG [Zaquata] (Eterna round: R96, puzzle: Exclusion NG 1)”, the “apparent KD of MS2 coat protein” value by setting is: (input ligand: FMN 200 uM) 59.2 nM; under setting [2], 30.1 nM; (input ligand: none) 43.5 nM.
